From publication PMC10769878 (2024)

T1: phi3T_93 (Bacillus subtilis phage phi3T)
T1 chain: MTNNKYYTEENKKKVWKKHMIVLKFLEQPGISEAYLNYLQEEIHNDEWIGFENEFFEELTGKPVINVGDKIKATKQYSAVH

T2: YosL^phi3T (Bacillus subtilis phage phi3T)
T2 chain: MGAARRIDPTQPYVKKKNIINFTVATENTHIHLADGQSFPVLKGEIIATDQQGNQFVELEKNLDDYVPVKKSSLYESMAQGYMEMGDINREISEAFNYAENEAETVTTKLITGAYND

T3: YosL^SPβ (Bacillus subtilis phage SPβ, UniProt O31877 1-117)
T3 chain: T2 chain

B1: MazE (natural protein)
chain: MSESSARTEMKISLPENLVAELDGVAMREKRSRNELISQAVRAYVSERTTRHNRDLMRRGYMEMAKINLNISSEAHFAECEAETTVERLVSGG
B2: MazF (enzyme)
chain: MIVKRGDVYFADLSPVVGSEQGGVRPVLVIQNDIGNRFSPTAIVAAIAAQIQKAKLPTHVEIDAKRYGFERDSVILLEQIRTIDKQRLTDKITHLDDEMMDKVDEALQISLALIDF
B3: AimX (natural protein)
chain: MKRALGKAISYEEMAKGYEEMAAINSIIAQEDNHLENEAEMIKTRYKTLAS

What was measured:
Test in all cases: BLI
MazF [1] = biological target: B2
phi3T_93 [2] = biological target: T1, phi3T_93
MazF [3] = biological target: B2
phi3T_93 [4] = biological target: T1, phi3T_93
YosL^phi3T [5] = biological target: T2, YosL^phi3T
YosL^SPβ [6] = biological target: T3, YosL^SPβ
YosL^phi3T [7] = biological target: T2, YosL^phi3T
YosL^SPβ [8] = biological target: T3, YosL^SPβ

Row | Binder | koff (MazF [1]) [s⁻¹] | koff (phi3T_93 [2]) [s⁻¹] | Kd (MazF [3]) [nM] | Kd (phi3T_93 [4]) [nM] | koff (YosL^phi3T [5]) [s⁻¹] | koff (YosL^SPβ [6]) [s⁻¹] | Kd (YosL^phi3T [7]) [nM] | Kd (YosL^SPβ [8]) [nM]
1 | B1 | 0.01 | 0.0013 | 404 | 27.3 | – | – | – | –
2 | B2 | – | – | – | – | 0.00033 | 0.00085 | 20.2 | 15
3 | B3 | 0.0066 | 0.045 | 81.3 | 184 | – | – | – | –
